In the nanobody polyreactivity screen of Harvey et al. (2022):

Assay: yeast display, Sf9 membrane polyspecificity reagent, FACS + sequencing; frameworks hold sequencing errors
In short: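 A synthetic nanobody library was expressed on Saccharomyces cerevisiae BJ5465 by galactose induction for 36–48 hours. The library was stained for 1 hour at 4 °C with 10% biotinylated, detergent-solubilized Sf9 membrane reagent and enriched with streptavidin microbeads before FACS. Low and high (top ~1%) gates were set on anti-HA fluorescence for expression and streptavidin fluorescence for reagent binding, and each polyreactivity label reflects the gate of origin.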

Sequence	polyreactivity (PSR sort gate)
QVQLVESGGGLVQAGGSLRISCAASGSNFASYAMGWYRQAPGKERELVSVITSGGRTYYADSVKGRFTISRDNAKNTVYLQMNSLKPEDTAVYYCKAYLFFLNRVWSFDYWGQGTQVTVSS	high polyreactivity
QVQLVESGGGLVQAGGSLRISCAASGSNFNPYDMGGYRQAPGKESELVAAIRTAGSTYYADSVKGRFTISRDNAKNTVYLQMISLNPEDTAVYYCNADEGFLYSAYEYDYWGQGTQVTVSS	low polyreactivity
QVQLVESGGGLVQAGGSLRISCAASGSNFTQYDMGWYRQAPGKERELVAAITSGGSTDYADSVKGRFTISRDNAKNTVYLQMNSLKPEDTAVYYCNAEAYPYWYRGASREYDYWGQGTQVTVSS	low polyreactivity
QVQLVESGGGLVQAGGSLRISCAASGSTFGRNAMGWYSQAPGKERELVAAISSGGSTSYADSVKGRFTISRDNAKYTVYLQMNSLKPEDTAVYYCAAHSVGSQYDYWGQGTQVTVSS	low polyreactivity
QVQLVESGGGLVQAGGSLRISCAASGSTFYPNAMGWYRPAPGTERELVAAIRGTGGSTYADSVKGRFTISRDNAKNTVYLQMNSLKPEDTAVYYCAAAGWTYRVEKYSVRLTGYDYWGQGTQVTVSS	high polyreactivity
QVQLVESGGGLVQAGGSLRISCAASGSTIAGYTMGLYRQAPGKEMELVAAISRRGSRTYYADSVKGRFTISRDNAKNTVYLQMNSLKPEDTAVYYCNARNRVYYTLSGYGYWGQGTQVTVSS	high polyreactivity
QVQLVESGGGLVQAGGSLRISCAASGSTLYRNAMGWYRQAPGKERELVAAISRTGGRTYYADSVKGRCTISRDNANNTVYLQMNSLKPEETAVYYCNTLTPSYTSGTHTFYSWGQGTQVTVSS	high polyreactivity
QVQLVESGGGLVQAGGSLRISCAASRSIFPLNAMGWYRQAPGKERELVAAITRSGGSTYYADSVKGRFTISRDNAKNTVYLQMNSLKPEDTAVYYCATDPEWPLPAYYYWGQGTQVTVSS	low polyreactivity
QVQLVESGGGLVQAGGSLRISCADSGSIFGYNAMGWYRQAPGKERELVAAISWSGGRTYYADSVKGRFTISRDNAKNTVSFQMNSLKPEDTAVYYCAAPSTGTYGSDYWGHGTQVTVSS	high polyreactivity
QVQLVESGGGLVQAGGSLRISCAPSGITLRRNAMGRYRQAPGKERELVARISTTGGSTYYADSVKGRFTISRDNAKNTVYLQMNSLKPEDTAVYYCAARAPLGFWHYDYWGQGTQVTVSS	high polyreactivity
QVQLVESGGGLVQAGGSLRISCAPSGSIFSDYAMGWYRQAPGKERELVATISSSGSTNYADSVKGRFTISRDNAKNTVYLQMNSLKPEDTAVYYCAAARLFAMDYWGQGTQVTVSS	low polyreactivity
QVQLVESGGGLVQAGGSLRISCAPSGSTFPRYAMGWYRQAPGKEREFVAVIWSGGSTYYADSVKGRFTISRDNAKNTVYLQMNSLKPEDTAVYYCAAEYHTLSKYSGYATHDYWGQGTQVTVSS	low polyreactivity
QVQLVESGGGLVQAGGSLRISCASSGNTFTSYAMGWYRQAPGKASELVASIDSDDSTNYADSVKGRFTISRDNAKNTDYFQMNSLKPEETAVFYCAASDNDDWYYVYHYDYWVQGTQVTVSS	low polyreactivity
QVQLVESGGGLVQAGGSLRISCDASGSIISRNAMGWYRQAPGKEREFVAAITRSGGSTSYADSVKGRFTISRDNAKNTVYLQMNSLKPEDTAVYYCAASYARSATAYYKYYDWGQGTQVTVSS	high polyreactivity
QVQLVESGGGLVQAGGSLRISCDASGSTFKLYPMGWYRQAPGKEREFVAAISRSGGSTNYADSVNGRFTISRDNAKNTVYLQMNSLKPEDTAVYYCAARYPGNYDYWGQGTQVTVSS	high polyreactivity
QVQLVESGGGLVQAGGSLRISCDPSGSTFGQYAMGSYRQAPGKERELVAAINWNGGSTYYADSVKGRFTISRDNAKNTVYLQMNSLKPEDTAVYYCAADPVYYDFDYWGQGTQVTVSS	low polyreactivity
QVQLVESGGGLVQAGGSLRISCVASARTFRWYAMGWYRQAPGKERELVATITLNGGSTYYADSVKGRFTISRDNAKNNVYLQMNSLKPEDTAVYYCNRGTNVVRRGVYSFGYDYWGQGTQVTVSS	low polyreactivity
QVQLVESGGGLVQAGGSLRISSAASGFIFSLNAMGWYRQAPGKERELVASITRSGTRTYYADSVKGRFTISRDNAKKTDFLQRNSLKPEATAVDYCAARTKRSYEYQAFYYWGQGTQVTVSS	high polyreactivity
QVQLVESGGGLVQAGGSLRISSAASGRIFRVNGIGWYIQAPGKERELVAAIRRSGGSTYYADSVKGRFTISRDNAKNSVYLLMNILKPDDTAVYFCAAPVRQSSYTRYDSWGQGTQVTVSS	high polyreactivity
QVQLVESGGGLVQAGGSLRISSAASGRMLYSYAMGWYRQAPGKESEFVAAIRRSGGSTYYADSVKGRFTISRDNAKNTVYLQMNSLKPEDTAFYYCAAGRRYSGSYDYWGQGTQVTVSS	high polyreactivity
QVQLVESGGGLVQAGGSLRITCAASGSTFYGKSMGLYRQAPGKERELVAAISRGGGSTYYADSVKGRFTISRDNAKNTVYLQMNSLIPEDTAVYYCAGTRYLHPWYYPYYYWGQGTQVTVSS	low polyreactivity
